Assay results published in patent publication US20100254972A1.

What was measured:
[1] = target: human TNFR1 (soluble recombinant protein) (human) (UniProt P19438); test: phage ELISA, plate coated with 1 nM TNFR1, anti-M13-HRP; trypsin 0 µg/ml; phage input 1.13E+10
[2] = target: human TNFR1 (soluble recombinant protein) (human) (UniProt P19438); test: phage ELISA, plate coated with 1 nM TNFR1, anti-M13-HRP; trypsin 0 µg/ml; phage input 1.41E+09
[3] = target: human TNFR1 (soluble recombinant protein) (human) (UniProt P19438); test: phage ELISA, plate coated with 1 nM TNFR1, anti-M13-HRP; trypsin 0 µg/ml; phage input 2.26E+10
[4] = target: human TNFR1 (soluble recombinant protein) (human) (UniProt P19438); test: phage ELISA, plate coated with 1 nM TNFR1, anti-M13-HRP; trypsin 0 µg/ml; phage input 2.82E+09
[5] = target: human TNFR1 (soluble recombinant protein) (human) (UniProt P19438); test: phage ELISA, plate coated with 1 nM TNFR1, anti-M13-HRP; trypsin 0 µg/ml; phage input 3.52E+08
[6] = target: human TNFR1 (soluble recombinant protein) (human) (UniProt P19438); test: phage ELISA, plate coated with 1 nM TNFR1, anti-M13-HRP; trypsin 0 µg/ml; phage input 4.51E+10
[7] = target: human TNFR1 (soluble recombinant protein) (human) (UniProt P19438); test: phage ELISA, plate coated with 1 nM TNFR1, anti-M13-HRP; trypsin 0 µg/ml; phage input 5.64E+09
[8] = target: human TNFR1 (soluble recombinant protein) (human) (UniProt P19438); test: phage ELISA, plate coated with 1 nM TNFR1, anti-M13-HRP; trypsin 0 µg/ml; phage input 7.05E+08
[9] = target: human TNFR1 (soluble recombinant protein) (human) (UniProt P19438); test: phage ELISA, plate coated with 1 nM TNFR1, anti-M13-HRP; trypsin 1 mg/ml; phage input 1.13E+10
[10] = target: human TNFR1 (soluble recombinant protein) (human) (UniProt P19438); test: phage ELISA, plate coated with 1 nM TNFR1, anti-M13-HRP; trypsin 1 mg/ml; phage input 1.41E+09
[11] = target: human TNFR1 (soluble recombinant protein) (human) (UniProt P19438); test: phage ELISA, plate coated with 1 nM TNFR1, anti-M13-HRP; trypsin 1 mg/ml; phage input 2.26E+10
[12] = target: human TNFR1 (soluble recombinant protein) (human) (UniProt P19438); test: phage ELISA, plate coated with 1 nM TNFR1, anti-M13-HRP; trypsin 1 mg/ml; phage input 2.82E+09
[13] = target: human TNFR1 (soluble recombinant protein) (human) (UniProt P19438); test: phage ELISA, plate coated with 1 nM TNFR1, anti-M13-HRP; trypsin 1 mg/ml; phage input 3.52E+08
[14] = target: human TNFR1 (soluble recombinant protein) (human) (UniProt P19438); test: phage ELISA, plate coated with 1 nM TNFR1, anti-M13-HRP; trypsin 1 mg/ml; phage input 5.64E+09
[15] = target: human TNFR1 (soluble recombinant protein) (human) (UniProt P19438); test: phage ELISA, plate coated with 1 nM TNFR1, anti-M13-HRP; trypsin 1 mg/ml; phage input 7.05E+08
[16] = target: human TNFR1 (soluble recombinant protein) (human) (UniProt P19438); test: phage ELISA, plate coated with 1 nM TNFR1, anti-M13-HRP; trypsin 10 µg/ml; phage input 1.13E+10
[17] = target: human TNFR1 (soluble recombinant protein) (human) (UniProt P19438); test: phage ELISA, plate coated with 1 nM TNFR1, anti-M13-HRP; trypsin 10 µg/ml; phage input 1.41E+09
[18] = target: human TNFR1 (soluble recombinant protein) (human) (UniProt P19438); test: phage ELISA, plate coated with 1 nM TNFR1, anti-M13-HRP; trypsin 10 µg/ml; phage input 2.26E+10
[19] = target: human TNFR1 (soluble recombinant protein) (human) (UniProt P19438); test: phage ELISA, plate coated with 1 nM TNFR1, anti-M13-HRP; trypsin 10 µg/ml; phage input 2.82E+09
[20] = target: human TNFR1 (soluble recombinant protein) (human) (UniProt P19438); test: phage ELISA, plate coated with 1 nM TNFR1, anti-M13-HRP; trypsin 10 µg/ml; phage input 3.52E+08
[21] = target: human TNFR1 (soluble recombinant protein) (human) (UniProt P19438); test: phage ELISA, plate coated with 1 nM TNFR1, anti-M13-HRP; trypsin 10 µg/ml; phage input 4.51E+10
[22] = target: human TNFR1 (soluble recombinant protein) (human) (UniProt P19438); test: phage ELISA, plate coated with 1 nM TNFR1, anti-M13-HRP; trypsin 10 µg/ml; phage input 5.64E+09
[23] = target: human TNFR1 (soluble recombinant protein) (human) (UniProt P19438); test: phage ELISA, plate coated with 1 nM TNFR1, anti-M13-HRP; trypsin 10 µg/ml; phage input 7.05E+08
[24] = target: human TNFR1 (soluble recombinant protein) (human) (UniProt P19438); test: phage ELISA, plate coated with 1 nM TNFR1, anti-M13-HRP; trypsin 100 µg/ml; phage input 1.13E+10
[25] = target: human TNFR1 (soluble recombinant protein) (human) (UniProt P19438); test: phage ELISA, plate coated with 1 nM TNFR1, anti-M13-HRP; trypsin 100 µg/ml; phage input 1.41E+09
[26] = target: human TNFR1 (soluble recombinant protein) (human) (UniProt P19438); test: phage ELISA, plate coated with 1 nM TNFR1, anti-M13-HRP; trypsin 100 µg/ml; phage input 2.26E+10
[27] = target: human TNFR1 (soluble recombinant protein) (human) (UniProt P19438); test: phage ELISA, plate coated with 1 nM TNFR1, anti-M13-HRP; trypsin 100 µg/ml; phage input 2.82E+09
[28] = target: human TNFR1 (soluble recombinant protein) (human) (UniProt P19438); test: phage ELISA, plate coated with 1 nM TNFR1, anti-M13-HRP; trypsin 100 µg/ml; phage input 3.52E+08
[29] = target: human TNFR1 (soluble recombinant protein) (human) (UniProt P19438); test: phage ELISA, plate coated with 1 nM TNFR1, anti-M13-HRP; trypsin 100 µg/ml; phage input 4.51E+10
[30] = target: human TNFR1 (soluble recombinant protein) (human) (UniProt P19438); test: phage ELISA, plate coated with 1 nM TNFR1, anti-M13-HRP; trypsin 100 µg/ml; phage input 5.64E+09
[31] = target: human TNFR1 (soluble recombinant protein) (human) (UniProt P19438); test: phage ELISA, plate coated with 1 nM TNFR1, anti-M13-HRP; trypsin 100 µg/ml; phage input 7.05E+08
[32] = target: human TNFR1 (soluble recombinant protein) (human) (UniProt P19438); test: phage ELISA, plate coated with 1 nM TNFR1, anti-M13-HRP; phage treated 1 h RT with trypsin 1 mg/ml; phage input 4.51E+10

human TNFR1 (soluble recombinant protein) (human), sequence (P19438 41-201 limits assumed): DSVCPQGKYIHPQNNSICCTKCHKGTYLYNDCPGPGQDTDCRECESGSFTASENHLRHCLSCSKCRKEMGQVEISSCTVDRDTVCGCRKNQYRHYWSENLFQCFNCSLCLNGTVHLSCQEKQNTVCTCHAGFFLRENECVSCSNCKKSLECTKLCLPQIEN

phage ELISA signal [1]: 0.949
phage ELISA signal [2]: 0.85
phage ELISA signal [3]: 0.944
phage ELISA signal [4]: 0.946
phage ELISA signal [5]: 0.577
phage ELISA signal [6]: 0.916
phage ELISA signal [7]: 0.962
phage ELISA signal [8]: 0.705
phage ELISA signal [9]: 0.183
phage ELISA signal [10]: 0.089
phage ELISA signal [11]: 0.229
phage ELISA signal [12]: 0.114
phage ELISA signal [13]: 0.08
phage ELISA signal [14]: 0.133
phage ELISA signal [15]: 0.084
phage ELISA signal [16]: 0.86
phage ELISA signal [17]: 0.409
phage ELISA signal [18]: 0.802
phage ELISA signal [19]: 0.573
phage ELISA signal [20]: 0.213
phage ELISA signal [21]: 0.784
phage ELISA signal [22]: 0.695
phage ELISA signal [23]: 0.286
phage ELISA signal [24]: 0.284
phage ELISA signal [25]: 0.115
phage ELISA signal [26]: 0.377
phage ELISA signal [27]: 0.141
phage ELISA signal [28]: 0.084
phage ELISA signal [29]: 0.418
phage ELISA signal [30]: 0.196
phage ELISA signal [31]: 0.084
phage ELISA signal [32]: 0.284
Substance: DOM1h-131
